From patent US20180201655A1 (University of California, published 2018)
Numbering of substitutions follows the chain as printed.

B1: R4-1 (other)
chain: MKTGEQRVKIATLLSENEKKIVDKASQDLWRRRPDFIAPGGIAFSQRERALCLRDYRWYLHLITFCLLAGDKDPIESIGLIGIREMYNSLGVPVPGMMESIRCLKEASLSLLDEEDAKETAPYFDYIIKAMS
modifications: biliverdin (BV) covalently attached
notes: Evolved APCα fluorescent protein of round 4; runs as a tetramer on native PAGE; also called R4-1+BV; not shown: polyhistidine tag on the C terminus
B2: R10-10 (other)
chain: MKTCEQRVNIATLLTENKKKIVDKASQDLWRRHPDLIAPGGIAFSQRDRALCLRDYGWYLHLITFCLLAGDKGPIESIGLIGIREMYNSLGVPVPAMMESIRCLKEASLSLLDEEDANETAPYFDYIIKAMS
modifications: biliverdin (BV) covalently attached
notes: Evolved APCα fluorescent protein of round 10; runs as a homodimer on native PAGE; also called R10-10+BV; not shown: polyhistidine tag on the C terminus
B3: small ultra-red fluorescent protein (smURFP) + BV (other)
chain: B2 chain with C4S, Y59F, G82S
modifications: biliverdin (BV) covalently attached at C52; predominant species has one BV per homodimer
notes: purified from E. coli co-expressing HO-1; runs as a homodimer on native PAGE; not shown: polyhistidine tag on the C terminus
B4: smURFP + BVMe2 (other)
chain: B2 chain with C4S, Y59F, G82S
modifications: biliverdin dimethyl ester (BVMe2) attached, a single BVMe2 per homodimer
notes: smURFP purified without chromophore, BVMe2 added in vitro; detected by mass spectrometry as the homodimer + BVMe2; also called smURFP+1BVMe2; not shown: polyhistidine tag on the C terminus

Tests used:
[1] = biological target: the molecule itself; test: native PAGE, self-association (tetramer)
From the text: (§1) FIG. 9A-FIG. 9C: Quaternary structure characterization of smURFP and TDsmURFP. (A) Native PAGE gel of APCαFPs. Monomeric IFP1.4 (36.5 kD) was ran as a reference. R4-1 runs as a tetramer, while R10-10 and smURFP run as a homodimer (32 kD). (B) Native PAGE gel of TDsmURFP. Monomeric IFP1.4 (36.5 kD) and tandem dimer Tomato (tdTomato, 54.2 kD) were ran as references. TDsmURFP (32.9 kD) runs slightly higher than smURFP due to 23 amino acid linker. (C) SDS denaturing PAGE gel of smURFP and TDsmURFP. BV was imaged by addition of zinc. All FPs show correct MW and covalently attached BV. […] (A-C) Each FP was run on two lanes. EX is excitation maximum and EM is emission maximum.
(§2) smURFP ran as a 32-kD homodimer on a native gel. R10-10 ran as a32-kD homodimer, while R4-1 was atetramer (FIG. 9a). Tandem dimer smURFP (TDsmURFP) was created by adding a 23-amino-acid linker between subunits and had ˜70% fluorescence of smURFP in bacteria (FIG. 2c). TDsmURFP (33 kD) ran near smURFP. tdTomato (54 kD) and IFP1.4 (37 kD) confirmed the dimeric nature of smURFP (FIG. 9a,b). To confirm covalent BV attachment, the FPs were run on a denaturing gel, and BV was detected with zinc²⁵. […] C52 is evolutionarily conserved among all APCαs and covalently attaches PCB (FIGS. 6 and 10a). The C52S mutation eliminated smURFP fluorescence (FIG. 10b,c), and C52 remains the BV attachment site. […]

[2] = biological target: the molecule itself; test: native PAGE, self-association (homodimer)
From the text: as §1, §2

[3] = biological target: the molecule itself; test: stoichiometry column of the table of biophysical properties (self-association)

Protein	binding result [3]	other results
B1	–	binding result [1]: binds
B2	–	binding result [2]: binds
B3	binds	–
B4	binds	–
